In patent US11643670B2, “Methods of enhancing chromosomal homologous recombination” (Massachusetts Institute of Technology, priority 2018, dated 2023):

Assays:
Type in all cases: cell-based, mouse
Chd2 locus = test: Chd2^R1684H knock-in by pronuclear injection of Cas9/crRNA/tracrRNA and ssODN, genotyping of cultured embryos
Description: (§1) tracrRNA, crRNAs, and ssODNs were synthesized by Integrated DNA Technologies (TABLE 1). All injection mixtures were prepared in a final volume of 50 μL according to the following methodology: Using RNase-free water, reagents, and consumables, crRNA (final concentration 0.61 μM), tracrRNA (final concentration 0.61 μM), and ultrapure Tris-HCl, pH 7.39 (final concentration 10 mM, ThermoFisher) were mixed and incubated at 95° C. for 5 minutes. The mixtures were cooled to room temperature for 10 minutes on the benchtop, and then, EnGen Cas9-NLS S. pyogenes (New England Biolabs) was added to a final concentration of 30 ng/μL. The mixtures were incubated at 37° C. for 15 minutes before adding any remaining components: ssODN (final concentration 3 ng/μL or 30 ng/μL), RAD51 (Creative Biomart, final concentration 10 ng/μL). Injection mixtures were stored on ice and briefly heated to 37° C. prior to injection. For experiments utilizing RS-1, embryos were cultured in KSOM-AA (EMD Millipore MR-121-D) with […] RS-1 (Sigma) dissolved in DMSO or DMSO (Sigma, 1:1000) for 24 hours, washed, and cultured in EmbryoMax FHM HEPES Buffered Medium (Sigma) until collection for genotyping.
Female mice (4-5 weeks old, C57BL/6N) were superovulated by IP injection of PMS (5 IU/mouse, three days prior to microinjection) and hCG (5 IU/mouse, 47 hours after PMS injection) and then paired with males. […]

maternal Chd2 locus = test: Donor-free interchromosomal homologous recombination (ICHR) in IVF-derived Chd2^R1684H/+ embryos
Description: as §1
For experiments using wildtype recombinant proteins, the following proteins were used: RAD51 (Creative Biomart RAD51-134H), USP1/WDR48 (Creative Biomart USP1&WDR48-1067H), BCCIP (Origene TP303061), XRCC1 (TP304952), XRCC4 (Origene TP312684), DMC1 (Origene TP318311). For experiments using mutant RAD51, custom RAD51 preparations were produced by Creative Biomart according to their standard protocol for producing the wildtype RAD51 used in all other experiments. Mutant DNA sequences used for cloning are described in TABLE 2. All RAD51 mutants were modeled in human RAD51 transcript variant 4 (NCBI accession NM_001164269), as this is the transcript variant of the wildtype RAD51-134H protein used in all other experiments.
In vitro fertilization was performed using FERTIUP® Mouse Preincubation Medium and CARD MEDIA (Kyudo Company) according to the manufacturer's protocol. Non-virgin Chd2^R1684H/R1684H males that were >8 weeks old were used as sperm donors. Following IVF, embryos were cultured for 8 hours and then injected using the PNI protocol described below.
For all experiments except those described in FIG. 6, the male pronucleus was injected. Injections performed for the CPI portion of FIG. 6 were targeted to the cytoplasm. All microinjections were performed using a Narishige Micromanipulator, Nikon Eclipse TE2000-S microscope, and Eppendorf 5242 microinjector. Individual zygotes were injected with 1-2 pL of injection mixture using an “automatic” injection mode set according to needle size and adjusted for clear increase in pronuclear volume. Following injections, cells were cultured in KSOM-AA until collection for genotyping. For experiments giving rise to F0 animals, embryos were surgically implanted into pseudopregnant CD-1 females (Charles River Laboratories, Strain Code 022) 24-hours post-injection and allowed to develop normally until natural birth.
Embryos were collected at morula-to-blastocyst stage in 4 μL nuclease-free water. After collection, 4 μL of 2× embryo digestion buffer was added to each sample (final concentrations: 125 μg/mL proteinase K, 100 mM Tris-HCl pH 8.0, 100 mM KCl, 0.02% gelatin, 0.45% Tween-20, 60 μg/mL yeast tRNA) and embryos were lysed for 1 hour at 56° C. Proteinase K was inactivated via incubation at 95° C. for 10 minutes and DNA was stored at −20° C. until use.
Chd2^R1684H genotyping was performed via a two-step, nested approach. Except for experiments described in FIGS. 3A-3G, all 8 μL of embryo DNA were used as input for the initial, long round of PCR. Genotyping of mouse pups and adult animals was performed using 2 μL of purified tail DNA. For all embryo genotyping, reactions mixtures were set up in a UV-sterilized laminar flow hood using sterile reagents and filter tips to avoid contamination. […]

RAD51 puncta = test: Immunocytochemistry for RAD51 puncta in zygotes
Description: Zygotes were fixed overnight at 4° C. in 4% PFA+0.1% Tween-20 in PBS and then briefly transferred to acidified Tyrode's (Sigma T1788) to remove the zona. After washing in PBS+0.1% Tween-20 (PBST), zygotes were permeabilized in PBS+1% Triton X-100 for 1 hour at 4° C. and then blocked for 1 hour at room temperature in blocking solution (PBS+3% BSA+5% normal goat serum). Primary antibody (rabbit anti-RAD51, Abcam ab63801, 1:500) was diluted in blocking solution and applied to coverslips overnight at 4° C. Cells were washed 3 times in PBST before application of secondary antibody (goat anti-rabbit IgG conjugate, Alexa Fluor 488, ThermoFisher A-11008) diluted in blocking solution for 1 hour at room temperature. Nuclei were counterstained with DAPI and coverslips were mounted to slides with Fluoromount Aqueous Mounting Medium (Sigma F4680). Cells were imaged on an Olympus Fluoview FV1000 confocal microscope with a 60× oil immersion objective and variable digital zoom. Raw image files were exported to FIJI^41 for Z-projection (sum slices), channel splitting, and scale bar generation.
Nonetheless, to more directly test the timing of zygotic ICHR, immunocytochemistry (ICC) was performed for RAD51 in uninjected, RAD51-injected, Cas9-injected (with Chd2-targeting crRNA), and Cas9- and RAD51-injected zygotes at three time points: G1 [9 hours post-fertilization (hpf), 1-hour post-injection (hpi)], G2 (14hpf, 6hpf, post S-phase), and M-phase (16hpf, 8hpi).

B1: RAD51: recombinant human strand exchange protein RAD51 (Creative Biomart RAD51-134H), transcript variant 4 (protein, UniProt Q06609 2-339, looked up)
DNA repair protein RAD51 …: AMQMQLEANADTSVEEESFGPQPISRLEQCGINANDVKKLEEAGFHTVEAVAYAPKKELINIKGISEAKADKILAEAAKLVPMGFTTATEFHQRRSEIIQITTGSKELDKLLQGGIETGSITEMFGEFRTGKTQICHTLAVTCQLPIDRGGGEGKAMYIDTEGTFRPERLLAVAERYGLSGSDVLDNVAYARAFNTDHQTQLLYQASAMMVESRYALLIVDSATALYRTDYSGRGELSARQMHLARFLRMLLRLADEFGVAVVITNQVVAQVDGAAMFAADPKKPIGGNIIAHASTTRLYLRKGRGETRICKIYDSPCLPEAEAMFAINADGVGDAKD
For B1, the “homozygous KI rate relative to injection without RAD51” value (Chd2 locus) was “more than doubled”, the “ICHR observed, share of injected embryos” value (maternal Chd2 locus; PNI at ~8 hpf of Cas9/crRNA/tracrRNA, no donor, 26% in control injected embryos) was 74% and the indel-to-ICHR ratio (maternal Chd2 locus; compared to control embryos) was “drastic decrease”. The overall indel rate (maternal Chd2 locus; compared to control embryos) was “drastic decrease”, the “number of RAD51 puncta per zygote” value (RAD51 puncta; G2 zygotes) was “single” and the “zygotes Negative for RAD51 puncta” value (RAD51 puncta; number of zygotes, G2 (14hpf)) was 25. For the same molecule, the “zygotes Positive for RAD51 puncta” value (RAD51 puncta; number of zygotes, G2 (14hpf)) was 6.
